Measured values: patent WO2024101382A1 (dated 2024)

Target: T1, Recombinant mouse LSR-Fc (mouse, UniProt Q99KG5 36-206, limits assumed)
T1 construct: not shown: Fc part
T1 sequence (looked up): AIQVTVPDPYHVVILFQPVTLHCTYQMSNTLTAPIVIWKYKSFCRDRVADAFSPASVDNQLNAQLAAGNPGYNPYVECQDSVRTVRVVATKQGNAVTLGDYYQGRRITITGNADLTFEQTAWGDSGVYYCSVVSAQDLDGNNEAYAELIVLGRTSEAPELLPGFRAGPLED
Experiment: ELISA, LSR-Fc coated on plate

binding result: binds
B1: Chicken mouse chimeric anti-LSR antibody (#27-6mF18) (antibody, V domains shown)
VH: AVTLDESGGGLQMPGGALSLVCRASGFDFSSYEMQWIRQAPGKGLEWVAGISGAGSGTRYGSAVKGRATISRDNGQSTVRLQLNNLRAEDTGIYFCARSSNIDAWGHGTEVTVST
VL: ALTQPASVSANLGGTVKITCSGGGRYAESYYYGWYQQKSPGSTPVTVIYWNDKRPSNIPSRFSGSLSGSTNTLTITGVQVEDEAVYFCGSYEDSRSAFGAGTTLTV
notes: Chicken-mouse chimeric antibody; also called anti-LSR monoclonal antibody #27-6 mF-18
